Assay results: patent CN114790240A (UNIV ZHENGZHOU; UNIV HENAN AGRICULTURAL, dated 2022)

B1: 单克隆抗体9D4 (antibody, V domains shown)
VH: QVHLQQSGPELVKPGASVKISCKSSGYALTDYYINWVKQRPGQGLEWIGWIFPGNDYTYFNEKFKDKATLTLDKSSRTAYMLLSSLTTEDSAVYFCARYGDGNYVYFDYWGQGTSLTVSS
VL: ETVLIQSPALMAASPGEKVTITCSVSSSISSSNLHWYQQKSGNSPKPWIYGTSNLASGVPVRFSGSGSGTSYSLTISSMEAEDAATYYCQQWSSYPLTFGAGTKLELK
B2: 单克隆抗体8H9 (antibody, V domains shown)
VH: QIQLVQSGPELKKPGETVKISCKASGYTFTTYGMSWVKQTPGKGLKWMGWINTYSGVPTYADDFKGRFAFSLETSASTASLQINNLKNEDTATYFCARYDPTAPDYAMDYWGQGTSVTVSS
VL: NIVMTQSPKSMSMSVGERVTLSCKASENVGTYVSWYQQKPEQSPKLLIYGASNRYTGVPDRFTGSGSATDFTLTISSVQAEDLADYHCGQSYIYPLTFGAGTNLELK

What was measured:
[1] = target: SARS-CoV-2突变株B.1.617.2株假病毒 (刺突蛋白) (SARS-CoV-2); experiment: cell-based or functional assay
[2] = target: SARS-CoV-2突变株B.1.1.529株假病毒 (刺突蛋白) (SARS-CoV-2); experiment: cell-based or functional assay

Row | Binder | 假病毒中和活性IC50 [1] [ng/mL] | 假病毒中和活性IC50 [2] [ng/mL]
1 | B1 | 155 | 188
2 | B2 | 56.6 | 92.9
